Holding throughout (conditions): protein: recombinant; tags: N-terminal His6 (pET28a)
One series addresses T1, Nab3 RRM K363R (Saccharomyces cerevisiae, UniProt P38996 329-419, K363R).
T1 sequence: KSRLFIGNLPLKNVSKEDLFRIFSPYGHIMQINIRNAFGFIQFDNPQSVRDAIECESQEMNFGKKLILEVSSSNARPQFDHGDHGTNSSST
Kind of series: pull-down (streptavidin, anti-His blot densitometry); 25 uM RNA; protein 0-60 uM; apparent Kd; 10 mM Tris-HCl pH 7.8, 50 mM NaCl, 1 mM EDTA, 5% glycerol, 2.5 mM DTT; 30 min at 15 C, then beads 2 h at 4 C; washes with 0.1% Tween-20.

For a further series, the target named is T2, Nab3 RRM (Saccharomyces cerevisiae, UniProt P38996 329-419).
T2 sequence: T1 sequence with R35K
The series is described as above.

The next series has as its target T3, Nab3 RRM S399A (Saccharomyces cerevisiae, UniProt P38996 329-419, S399A).
T3 sequence: T1 sequence with R35K, S71A
Kind of series: pull-down (streptavidin, anti-His blot); 25 uM RNA; 10 mM Tris-HCl pH 7.8, 50 mM NaCl, 1 mM EDTA, 5% glycerol, 2.5 mM DTT; 30 min at 15 C, then beads 2 h at 4 C; washes with 0.1% Tween-20.

In a further series the target is T4, Nab3 RRM K363A (Saccharomyces cerevisiae, UniProt P38996 329-419, K363A).
T4 sequence: T1 sequence with R35A
The series is described as above.

Where a chain is given by its changes, count along the chain named.

For UUUCUUUUUUCUUAUUCUUAUU (ssRNA) [snR47 RNA probe], the Kd with Nab3 RRM K363R came to 41.9 µM; with Nab3 RRM, 13.7 µM. For the same molecule, the binding result in the series with Nab3 RRM S399A and in the series with Nab3 RRM K363A was “no binding” each time.
